Experimental data: US20170101470A1 (PROTHENA BIOSCIENCES, published 2017)

Legend:
[1] = target: T1, human MCAM I207A mutant clone on BHK-S cells (human) (UniProt P43121); assay: shotgun mutagenesis, immunodetection on BHK-S cells, 0.25 ug/mL, background-subtracted and normalised to WT, triplicate
T1 sequence: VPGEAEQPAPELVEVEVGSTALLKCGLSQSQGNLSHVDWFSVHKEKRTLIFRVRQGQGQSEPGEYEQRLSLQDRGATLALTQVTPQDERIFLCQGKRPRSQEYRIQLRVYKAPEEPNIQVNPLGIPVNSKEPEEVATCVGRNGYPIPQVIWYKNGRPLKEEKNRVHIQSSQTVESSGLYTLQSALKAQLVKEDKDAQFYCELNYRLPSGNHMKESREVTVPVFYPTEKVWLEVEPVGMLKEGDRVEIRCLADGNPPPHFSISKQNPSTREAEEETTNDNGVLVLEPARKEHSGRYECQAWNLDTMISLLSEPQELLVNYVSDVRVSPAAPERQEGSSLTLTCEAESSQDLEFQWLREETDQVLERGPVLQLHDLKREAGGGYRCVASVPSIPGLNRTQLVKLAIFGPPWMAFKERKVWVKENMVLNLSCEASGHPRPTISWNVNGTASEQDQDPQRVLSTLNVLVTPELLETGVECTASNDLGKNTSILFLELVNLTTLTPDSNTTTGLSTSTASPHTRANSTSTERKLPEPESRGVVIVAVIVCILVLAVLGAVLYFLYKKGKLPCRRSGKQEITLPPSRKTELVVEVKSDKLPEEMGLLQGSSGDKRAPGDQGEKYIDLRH

[2] = target: T2, human MCAM V241A mutant clone on BHK-S cells (human) (UniProt P43121); assay: as above
T2 sequence: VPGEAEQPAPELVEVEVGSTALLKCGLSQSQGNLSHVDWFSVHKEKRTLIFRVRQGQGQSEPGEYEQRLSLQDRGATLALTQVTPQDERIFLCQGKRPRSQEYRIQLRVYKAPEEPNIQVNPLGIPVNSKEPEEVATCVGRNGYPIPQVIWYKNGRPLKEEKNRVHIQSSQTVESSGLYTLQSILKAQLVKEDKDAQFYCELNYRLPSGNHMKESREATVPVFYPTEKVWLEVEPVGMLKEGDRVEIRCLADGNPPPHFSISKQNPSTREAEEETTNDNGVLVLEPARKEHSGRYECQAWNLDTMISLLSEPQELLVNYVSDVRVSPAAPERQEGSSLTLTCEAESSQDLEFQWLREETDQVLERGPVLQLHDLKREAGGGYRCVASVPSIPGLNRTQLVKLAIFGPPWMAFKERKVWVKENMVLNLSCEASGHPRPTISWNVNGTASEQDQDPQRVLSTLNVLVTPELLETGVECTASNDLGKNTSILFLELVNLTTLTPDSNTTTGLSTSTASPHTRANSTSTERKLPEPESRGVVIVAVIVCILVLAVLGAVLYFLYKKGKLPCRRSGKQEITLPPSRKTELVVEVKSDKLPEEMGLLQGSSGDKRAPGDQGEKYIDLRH

[3] = target: T3, human MCAM Y167A mutant clone on BHK-S cells (human) (UniProt P43121); assay: as above
T3 sequence: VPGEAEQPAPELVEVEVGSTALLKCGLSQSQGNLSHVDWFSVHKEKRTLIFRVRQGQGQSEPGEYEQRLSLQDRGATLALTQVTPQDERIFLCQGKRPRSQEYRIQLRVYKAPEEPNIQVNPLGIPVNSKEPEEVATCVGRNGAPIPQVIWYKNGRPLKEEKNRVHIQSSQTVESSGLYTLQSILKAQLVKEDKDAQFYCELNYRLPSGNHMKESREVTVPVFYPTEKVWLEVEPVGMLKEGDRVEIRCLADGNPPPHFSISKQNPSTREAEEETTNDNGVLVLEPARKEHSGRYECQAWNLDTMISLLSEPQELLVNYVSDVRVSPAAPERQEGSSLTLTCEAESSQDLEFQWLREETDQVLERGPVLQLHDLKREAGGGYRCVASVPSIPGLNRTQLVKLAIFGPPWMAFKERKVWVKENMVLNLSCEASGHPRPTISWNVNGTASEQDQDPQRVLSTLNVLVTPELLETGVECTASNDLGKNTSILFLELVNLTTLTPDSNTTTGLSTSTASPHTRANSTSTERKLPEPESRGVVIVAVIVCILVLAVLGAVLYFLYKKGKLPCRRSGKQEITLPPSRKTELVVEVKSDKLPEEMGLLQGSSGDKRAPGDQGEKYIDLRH

[4] = target: T4, human MCAM domain 1 hFc construct (human, UniProt P43121 19-129); assay: ForteBio Octet Red, MCAMhFc domains on anti-human IgG Fc sensors
T4 construct: One of the 'various MCAMhFc domains' loaded on the ForteBio sensors; also called MCAMhFc domain 1
T4 sequence: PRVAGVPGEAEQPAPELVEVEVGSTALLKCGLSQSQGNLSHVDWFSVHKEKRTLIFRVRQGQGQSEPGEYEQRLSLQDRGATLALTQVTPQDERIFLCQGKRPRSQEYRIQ
Source text: The following protocol was used: ForteBio anti-human IgG Fc biosensors were used to immobilize various MCAMhFc domains including full length MCAMhFc protein on to biosensor surface. […] After loading these samples into a black 96 well plate, the Octet Red was programmed as follows: 60 seconds for baseline #1; 180 seconds for loading various domains; 60 seconds for baseline #2; 180 seconds for association of antibody to domain; and 240 seconds for dissociation of antibody from domain.
Reagents and Supplies Used: [0358] 1. MCAMhFc final concentration @ 5 ug/ml [0359] […] 3. ForteBio anti-human IgG Fc Capture (AHC) biosensors for kinetics experiments, cat#18-5060 [0361] 4. Block 96 well plate from Greiner Bio-one, cat#655209 [0362] 5. ForteBio Octet Red machine [0363] 6. Fresh tissue culture medium, DMEM with 20% FCS, was used as buffer for dilution

binding result [4]: no binding (tested: 5 ug/ml)
B1: rat anti-human MCAM monoclonal antibody clone 2120.4.19 (antibody, V domains shown)
VH: QVQLKESGPGLVQPSQTLSLTCTVSGFSLTSNGVSWVRQPPGKGLEWIAAISSGGTTYYNSAFKSRLSISRNTSKSQVLLKMNSLQTEDTAMYFCARRYGYGWYFDFWGPGTMVTVSS
VL: DIRMTQSPSLLSASVGDRVTLNCKASQNIYNSLAWYQQKLGEGPKVLIPNANSLQTGIPSRFSGSGSGTDFTLTISSLQPEDFATYFCQQFYSGYTFGAGTKLELK
notes: also called m2120
mean reactivity (% of wild type MCAM) [1]: 23.6 % WT
mean reactivity (% of wild type MCAM) [2]: 24.4 % WT
mean reactivity (% of wild type MCAM) [3]: 14.3 % WT
